From a protein production outcome set (Wang et al. 2014)

Experiment: label from the status in PepcDB records
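Note: failed if final PepcDB status was selected cloned or expressed and not failed if soluble or beyond.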

**Q.** For “MKQESPRLENTTPVEEKMTRSLLDHLTRLKPTRLVIFTSVFLSCLLLSLGFVFLQPATYQSYATLLTVAKTAIDQASREADIQHVAIQKQVLLGSELLTETADRLRKGDDAEAGINLTHAAIRDMLDVRPVDDTNLVEMVAEGNEPGLLPRLINTWIDVYLDARSAEIARSKGSTVEMMQEELVALTEKIQQKRLELEQFRQHNEIVSTERQDNEALARLKGLTDSLNKASEEEVKAKARLDTIRKSIERGQIVVPNEDTRTLSALERRAQELREQLEELDRQYTREYMALSPDLKVIPDKLRALEDEIQHIRRKGQTVVVSDAEQEYAAARQATRSIQEQLDQHRKKAAEFTARFTEHDALKSDLEELEQLYRDTQARLAQIEAQHTGKYPYVDVIERAFLPHHPIGPDYLWNAMIATLASLLLGLTAIWILEFLMHKEQEKLAIHLSGIHLHNQDNLPHSAFDVLPSTSVNLPRQPAQALEHTSMNGLTPQQIATLFQTANIREKQLLLLLLSGLTPDEITHLQQDDIDLEHNSLTVRSVPARTIPLHPVLAALYGKYGHCLTDPAGNRLNQEELEALLICLQIDADLSADNQISAEILRQTYILYLVRQGIRLGDLESVTGYISPTELSGYGTYAPAGTRYPVESVNLFYPIDYKQDV”, which protein production is on record?
**A.** failed

**Q.** For “TSKQRYSGKVHLCVARYSYNPFDGPNENPEAELPLTAGKYLYVYGDMDEDGFYEGELLDGQRGLVPSNFVDFVQDNESRLAST”, which protein production is on record?
**A.** not failed

**Q.** Which protein production does the source give for “MNTLIIAKKEIVSAFRDKRTFLFMLAFPIVLIMILGTALTNAFDQQAAVGEVRVLYKDNSDGAFSQGFKTFVKEAKTSGVHFKKVLSDMDEKQEIKQGNYDAYLEIENSGIKLYQMDKNSMKNSIIQGMLTAFANRYNAAAEIIKAAPEQAGAVLGDAPGDNYIKETSLSSDRKPSSMDYYAVAMTTLIALYSALSASYLIRGERLRKTADRLIAAPVHKGEIFAGKLIGNLVTNGLCIFAVVAVSKYVFKAYWGEHLGLVAAVLFSIVLFAVCLGLGVSYLTRTGEAAVAIINVLIPLVAFFGGAYFPVDDAEGVLALITDLSPLAWTNEAIMNIIFADDLAAGLPAILLNIGLSLLFLLIAVVSLQRREGL” here?
**A.** failed

**Q.** With “MSLRAELNQGLIDFLKASPTPFHATASLARRLEAAGYRRLDERDAWHTETGGRYYVTRNDSSLIAIRLGRRSPLESGFRLVGAHTDSPCLRVKPNPEIARNGFLQLGVEVYGGALFAPWFDRDLSLAGRVTFRANGKLESRLVDFRKAIAVIPNLAIHLNRAANEGWPINAQNELPPIIAQLAPGEAADFRLLLDEQLLREHGITADVVLDYELSFYDTQSAAVVGLNDEFIAGARLDNLLSCHAGLEALLNAEGDENCILVCTDHEEVGSCSHCGADGPFLEQVLRRLLPEGDAFSRAIQRSLLVSADNAHGVHPNYADRHDANHGPALNGGPVIKINSNQRYATNSETAGFFRHLCQDSEVPVQSFVTRSDMGCGSTIGPITASQVGVRTVDIGLPTFAMHSIRELAGSHDLAHLVKVLGAFYASSELEGHHHHHH” as the sequence, how does the protein production read?
**A.** not failed

**Q.** Which protein production does the source give for “MKGVIMIIDGMADRPLEKLSGRTPLEAASTPNMDRIAESGINGIMDPIKPGVRAGSDTSHLSILGYDPYRVYTGRGPFEAAGVGLDVKPGDIAFRCNFATADEDMIITDRRAGRIRSGTSSIARTINSMTIEGFEDVEIIFRESTGHRAVLVLRGPGLGDKVSDADPKVEGKPPKKIKALDGSPESRKTAEVLNRIVKESYEILRDHPVNTGRIERGEAPANIILPRGAGAVPHVEKFQERYDLKAACIAETGLIKGIGHLTGMDVIDVEGATGGIDTDLESIKNAISSAIAADYDFLLINIDGADEAGHDGDLEGKVRFIERVDSILGDLMGDDIYFILTADHSTPVSVMDHTGDPVPIAITGPEVRVDDVTSFSERAAAAGGLCRIRGSDVMDILLDLMNKKEKFGALEHHHHHH” here?
**A.** failed

**Q.** For “MMPYITDIAALEHVGVAAAWTEKVPAFRVLREKRMLDFRAPITVITGENGVGKSTLLEAIAINAGFDTAGGEHTGKFKPSDNPLQTVAKAHKGKEPMRGYFLRAETHFNVASGYRDEAPGWVNLHHMSHGESVMHIVQNAFVGKGLYLMDEPEAGLSFIRQMAILAELNFLAESGAQIIIVTHSPVLMAIPGAEIWEFSASGELHRGFDFEVTTAFRALRDFFEDPEEIAEYMMDVMMDNKGESLEHHHHHH”, which protein production is on record?
**A.** failed

**Q.** With “MYSPFEILYLAIIIDSLSYTIGALLYGSPIPVRGFKEMGHKMIVNSIYVAVLANIFGLILSILSQLQNIVGANWSTFYLDIGLLQIQTGVAINMGKFLYGIIALILYYFKVPSQFYSLVTPLLQYISFLTDILILLNFYMDLGIFIQSSYMVLIAIGILLMALPFQMGKGIGAMLISFTIVFYVGLPLLPILISNSSPLQNQNFVLQDISLQTEEFYAQIPALFYSFILIPLTYVGVLVGFSVVLQSFIGGYVGRLPIPVEI” as the sequence, how does the protein production read?
**A.** failed

**Q.** For “MRMLKTGLLNFISVLVKVITGLFLNKIMALYVGPAGYALVSQFQNGINFITTFASGAINTGVTKYTAEYANDKGKTSDLFKCITLLAITCCSFFSLTIIVFSEYFSLKLLGTINYSGVIKWFAATLFLFVANSILVSIINGLKEFKLYVLINIFGSLFSLLFSGILIYFFNLKGALIAFATNQSIVFFMTFYLIISKKMVSLKSFIGMPSDFYFIKKLIQYALMAIVSAFCVIYMQIIIRTYIANHFGWVQAGIWDGVWRISSLYLMLVTVPLGVYYLPRLAELHTKSLLLREIKQGYLFLLPIIIISAIIIYYLRYFIIELLFSKSFVSMGDIIGWQLLGDIFKIGSWLLSYIMLSKALTKTYIITEITTALLFLGGVHYLSPLYGLKGVTLAYCITYFCYWIMMIVVIISYFKGNFRNE”, which protein production is on record?
**A.** failed

**Q.** Which protein production does the source give for “MINLVEFNLFLDLLGSALLLSLPWLLLGIIISSTFLIWTDEQKWVANFPRNRLLSSLVGSALGFLLPLGAFGSVPLVRRLLLQGAPIPLAVSFLVAAPTLNIFAIVRVLSSRQSQYGLIFLCISCSWLMAIVMGLVFSTYRLARQQAEDEGETALLNIPLLRSGALIILQSSMEASPRQGGLVFASGVNPVADFSWRQKLHLFGRNIIEEFQEFGGVLVIGTAIACGIVFFLPQAWLLQWAGLGPVRQTVLMMGWSFILPLGNFSNPDLLAPLGEQLWRGSMVAFLLWGSLFNLQTIGLWLVTLRLRPLSYLVVLVGLSVFLFAMVTNYYLS” here?
**A.** failed

**Q.** With “MARLARLGEPFALATVVASSGSSPRKAGAKMLIRGDGSALGTVGGGHVEQDTLAAARASLAEGAPRTLEFVLTEEHGYACGGSMSVFIEPQGRRPLLVMFGAGHVGRAVTALAHGCGFRVIVVDERPEYAVPALLPGADEIVCVPVGAAFARLTLDRESFAVIATPGHVHDFDAVRGCLATEVGFIGLLGSRRKREALMKTLTEEGYEAGRQARVVTPVGLDIGAQTPEEIAVSIVGQLVKLRRQA” as the sequence, how does the protein production read?
**A.** failed

**Q.** Which protein production does the source give for “MGRTPETHVIDFRAAEQLLAARDPRGAVKLLDPVIAAHPENTAARLLRARAFFAAAQLRPAELEFTIVLEREPDNAFAHFALARTYERQLRPDQAKRHFRLAAALDPNPQYLKAARLEHHHHHH” here?
**A.** not failed

**Q.** Which protein production does the source give for “MSFVLWLVGKKCIVDVGTNGKNSWKVGGKDGVACRDHSGFRLEKLGLFCWWKLQKDGCGQKLNRRKDHRAFPLPSVVNERPRKLND” here?
**A.** failed

**Q.** Which protein production does the source give for “YSIALIIPSLFEKACAHFLPSFQQALNKAGYQLLLGYSDYSIEQEEKLLSTFLESRPAGVVLFGSEHSQRTHQLLEASNTPVLEIAELSSKASYLNIGVDHFEVGKACTRHLIEQGFKNVGFIGARGNHSTLQRQLHGWQSAMIENYLTPDHFLTTHEAPSSQLGAEGLAKLLLRDSSLNALVCSHEEIAIGALFECHRRVLKVPTDIAIICLEGSSMGEHAYPSLTSAEFDYERMGTKAAEKLLHAIKGEPEERPTSMGFKLKRRASTAIN” here?
**A.** not failed

**Q.** Which protein production does the source give for “MISIVIPLYNQVAYTQLCVQSLRRAGLNGVDVLLIDNGSTDGTAEYLKSCSDLRVIRNRENLGCAGAWNQGVRETTSEWVMILNNDVVVSPGWLDGLLEAAGKEGLDVVSPAIREGEYNYDIEGYSQEFVGRMGDVVRRGVADGICFMVRRRVFEVVGLFDENFRIGQFEDADFFRRARNAGFRLGTTGRSFIHHFGSVTQDAIRKNRPERPYVAENRAYFREKWQLTRGRRLIERWRRKLREFAWQKCERMFHGHTLKEKWLGGRLRYYLEHHHHHH” here?
**A.** failed

**Q.** With “ELQVIQPEKSVSVAAGESATLRCAMTSLIPVGPIMWFRGAGAGRELIYNQKEGHFPRVTTVSELTKRNNLDFSISISNITPADAGTYYCVKFRKGSPDDVEFKSGAGTELSVRAKPSAPVVSG” as the sequence, how does the protein production read?
**A.** not failed

**Q.** Which protein production does the source give for “MRSSSSSSVLPSLPNARLRRPAVWIAFLAVAALSLTGCDLFGSNDDEGRRVTTDVVIANSGNFSAQDGSLTLYNPTASTATLKDIEVAFINSLAQHNGRLFVVDNTTSDNAGKITTFDTEQLGPVDQITNLQRSPRRIAFPEENKGYVTNLSRDLDDAPSNFVPDTSTVSVVDLEADSVTKRVDVGRSPEGIAAVARKAFVANSADGTLSVLDAGADTVNTTLSLPDCANPKSVFVDDENEVAVVCQGGGEQASEVLFLSPIEETIKDRVELGAPIGSANGSQSAYYSEGAEELYTISGSQAFGGNGTGEIFRIDTNANALDATLEIPQDDGLIGITAVGYDDVTQDLYVTRLPVGAGGFPLFSANGTALVLDRQGNEVTRFETGNSPGHITFLGDRQ” here?
**A.** failed

**Q.** Which protein production does the source give for “THVVCSDSGLEVLYQSCDPLQDFGFSVEKCSKQLKSNINIRFGIILREDIKELFLDLALMSQGSSVLNFSYPICEAALPKFSFCGRRKGEQIYYAGPVNNPEFTIPQGEYQVLLELYTEKRSTVACANATIMCS” here?
**A.** not failed

**Q.** With “MEERSQLFLEQYLSSVSREVSEKYTSFSADYFCADEYNANVCADLILRGEKRASCSLEYWYSQKGELMPQVGHLQVVTNWDGKPICIIEITSVSKCQYNQVSEDFAASEGEGDKSLAWWQEAHRNFFSRECHELGIEFREDMLLVLEHFKVVYH” as the sequence, how does the protein production read?
**A.** not failed

**Q.** With “MPINTLESSPWRGSRHDFCRERLEPLLDQAGIRINGDRPWDIRVHDPAFFRRMFADASLGLGESYVDGWWDCDRIDEFICRIIRAGLADRFRSWRDAVAALQARLFNLQHAARAFHVGQRHYDIGNDLYGCMLDRRMIYSCGYWKDATTLDEAQEAKLDLVFRKIGLEPGMRVLDIGCGWGGAARFAAEKYGVEVYGVTVSAEQARYAREICQGLPVTIELKDYRDIEGHFDRAYSLGMFEHVGCKNYGTYMKLVADRLPDDGLFLLHTIGINTSDNHGNPWVDRYIFPNSMLPSIAQIGTATENRLVMEDWQNFGPDYDRTLLTWYDRFEWHWPSLRPRYGDRFYRMWRFYLLSFAGAFRARYIQLWQIVLSPKGLTRRYDAPR” as the sequence, how does the protein production read?
**A.** failed

**Q.** Which protein production does the source give for “MSKEDAWNMVTIYPAKQLRVDEYVGSLTPGKMADIVLWNAEPLSIYAKVTHAWVEGKRYFDREQDQLAQLEHHHHHH” here?
**A.** failed

**Q.** For “MMEDRSLNSHGMPSRRGLEPLEWGATGLTVVLSVAAAATQQAILTAIAPLPLSLAVGLNWVSRKKLDDQFQVFRQQQEAKIAELVASQGQQQSELASLNLALAQVRDRLEDVQKQVMQLNQGAQDLHDYTRILDTEQKQIEEVLDCLREIEKNTQVIQVNPSHAKAYYNRGLTHQRLGDAEAAILDYTEAIRLNDTYAKAYHNRGVARSTLGDRKGAVEDLRTAAKLFFEQGDISSYQRARDLAKRIHEVGSIEQDNQEGTIKEVPLEILFS”, which protein production is on record?
**A.** failed

**Q.** Which protein production does the source give for “MSEVEQFATIALISLTAFISPLIADKLRVPVVVLEIVLGMIFGVSFLNVIYASEWLSFLSLFGLIFLMFLAGLEIDADVVLKSGHLKRVVAFFALSLALSVALTALMGLNLFYAIILTNVAVGVVVSVLREIGLEKEDFGQLNIVTALVSDFSTMFLLSIYFITGYLQVAFAFLIILVFLAAYRFGKLVIWHFPDFISRWFSDEPSEIGVRGSLAIMILFVGLSSLLGVEAILGAFLAGVLLSITFRGGKKLYDKLYGMGFGFFIPIFFIKTGSELNITQAGEGIGFILLLLAVSVAVKGIPSLIFASNFGLRRAISMGMLQSTKLSLTIAGVAIGVSSGVITEFESTALVTFTIISCLLSPTLFRFLYPRYLPKTR” here?
**A.** failed
